Measurements taken from patent US20140341915A1 (DEUTSCHES KREBSFORSCHUNGSZENTRUM, published 2014).

Experiments:
[1] = target: T1, B7-H6-Ig-fusionprotein consisting of the extracellular domain of B7-H6 fused to an IgG1-Fc domain (human, UniProt Q68D85 25-267); test: ELISA
T1 construct: Junction residues from restriction sites are not given; also called B7-H6-Ig-FP
T1 sequence: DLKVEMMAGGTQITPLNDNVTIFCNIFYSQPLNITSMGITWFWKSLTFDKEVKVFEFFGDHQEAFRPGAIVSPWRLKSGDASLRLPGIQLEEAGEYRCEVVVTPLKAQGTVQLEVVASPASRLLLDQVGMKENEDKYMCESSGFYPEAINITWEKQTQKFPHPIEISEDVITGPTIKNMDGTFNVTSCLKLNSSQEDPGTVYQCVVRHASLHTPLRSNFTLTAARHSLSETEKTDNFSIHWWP

[2] = target: T2, B7-H6 polypeptide on cells (BA/F3-B7-H6 transfectants; cell lines expressing B7-H6 endogenously) (human, UniProt Q68D85 25-454); test: immunohistochemistry on acetone-fixed cytospins, mAb at 5 µg/ml
T2 construct: whole, on cells; The construct used for the BA/F3 transfectants is not described
T2 sequence (looked up): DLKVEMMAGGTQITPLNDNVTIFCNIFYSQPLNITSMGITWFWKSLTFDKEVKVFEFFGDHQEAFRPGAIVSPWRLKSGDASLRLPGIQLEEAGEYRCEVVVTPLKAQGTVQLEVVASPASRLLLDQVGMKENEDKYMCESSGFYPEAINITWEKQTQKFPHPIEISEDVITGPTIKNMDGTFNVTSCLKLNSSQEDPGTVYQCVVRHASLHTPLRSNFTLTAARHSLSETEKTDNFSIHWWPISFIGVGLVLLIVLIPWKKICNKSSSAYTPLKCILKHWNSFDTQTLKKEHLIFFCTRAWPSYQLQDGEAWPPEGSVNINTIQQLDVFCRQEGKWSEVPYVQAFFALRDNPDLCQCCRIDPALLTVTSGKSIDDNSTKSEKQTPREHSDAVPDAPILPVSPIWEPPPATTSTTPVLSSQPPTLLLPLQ
Description: Acetone-fixed cytospins of a 1:1 mixture of Ba/F3 and Ba/F3-B7-H6 cells were stained using the Dual Envision+System-HRP (Dako). After blocking endogenous peroxidase activity, cytospins were blocked with 10% goat serum and 0.1 mg/ml human
IgG. […] After incubation with 3,3′-diaminobenzidine (DAB) substrate solution, cell nuclei were counterstained with Hematoxylin and mounted cyotospins were analyzed by light microscopy.

binding result [1]: binds | binding result [2]: binds
B1: anti-B7-H6 monoclonal antibody (mAb) 1.18 (antibody, V domains shown)
VH: DVKLVESGGGLVKPGGSLKLSCAASGFTFSSYTMSWVRQTPEKRLEWVATINNGGSYTYYPDSVKGRFTISRDNAKNTLYLQMSSLKSEDTAIYYCYGYDPAWFAYWGQGTLVTVSA
VL: QAVVTQESALTTSPGETVTLTCRSSTGAVTTSNYANWVQEKPDHLFTGLIGGTNNRAPGVPARFSGSLIGDKAALTITGAQTEDEAIYFCALWYSNHWVFGGGTKLTVLG
